94 variants from the supplement of paper PMC10567573 can be followed below.

Sequences and labels used below:
B1: SLC22A15 (parent)
chain: IAQYALLGYFIRSWRTLAILVNLQ
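Note: lentivirally expressed fusions sorted by FACS into six bins by GFP to DsRed ratio, PSI derived from sequencing read proportions per bin multiplied by bin number.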

Variants of B1 are the subject of the data set. Put plainly: protein stability index of a GFP-peptide fusion (GPS, HEK-293T) (PSI 1-6); higher = more stable. The settings on record: c terminus: a fixed tail appended.
Turning to IAQYALLGYFIRSMRTLAILVNLQ, the protein stability index is 2.62. With IAQYALLGYFIRSHRTLAILVNLQ, the protein stability index came to 4.19. Next, IAQYALLGYFIRSPRTLAILVNLQ: 3.8; IAQYALLGYFIRSFRTLAILVNLQ: 2.86; IAQYALLGYFIRSCRTLAILVNLQ: 4. The result for IAQYALLGYFIRSVRTLAILVNLQ reads 2.46; that for IAQYALLGYFIRSERTLAILVNLQ, 1.91; that for IAQYALLGYFIRSDRTLAILVNLQ, 2.61. For the variant IAQYALLGYFIRSTRTLAILVNLQ, the protein stability index worked out at 2.6. The result for IAQYALLGYFIRSRRTLAILVNLQ reads 2.52. In the case of IAQYALLGYFIRSWRTLFILVNLQ, the protein stability index worked out at 3.68. Regarding IAQYALLGYFIRSWRTLIILVNLQ, the protein stability index came out at 3.41. The result for IAQYALLGYFIRSWRTLHILVNLQ reads 2.25. Next, IAQYALLGYFIRSWRTLNILVNLQ: 3.65.

Take IAQYALLGYFIRSWRTLCILVNLQ: the protein stability index was determined as 2.44. The result for IAQYALLGYFIRSWRTLMILVNLQ reads 2.17. On to IAQYALLGYFIRSWRTLQILVNLQ, for which the protein stability index turned out to be 2.15. The result for IAQYALLGYFIRSWRTLRILVNLQ reads 2.01. Next, IAQYALLGYFIRSWRTLYILVNLQ: 3.11; IAQYALLGYFIRSWRTLKILVNLQ: 1.91.

Consider IAQYALLGYFIRSWRTLGILVNLQ, for which the protein stability index was 3.28. Next, IAQYALLGYFIRSWRTLDILVNLQ: 2.57; IAQYALLGYFIRSWRTLWILVNLQ: 2.12.

IAQYALLGYFIRSWRTLLILVNLQ: the protein stability index was found to be 3.84. The result for IAQYALLGYFIRSWRTLPILVNLQ reads 3; that for IAQYALLGYFIRSWRTLSILVNLQ, 3.54.

On to IAQYALLGYFITSWRTLAILVNLQ, for which the protein stability index is 1.97. The result for IAQYALLGYFIMSWRTLAILVNLQ reads 2.98; that for IAQYALLGYFIISWRTLAILVNLQ, 3.48.

As to IAQYALLGYFIQSWRTLAILVNLQ, the protein stability index is 1.93. The result for IAQYALLGYFISSWRTLAILVNLQ reads 3.61; that for IAQYALLGYFIKSWRTLAILVNLQ, 2.95.

Take IAQYALLGYFIYSWRTLAILVNLQ: the protein stability index stood at 3.46. In the case of IAQYALLGYFILSWRTLAILVNLQ, the protein stability index came out at 2.94.

For IAQYALLGYFIWSWRTLAILVNLQ, the protein stability index worked out at 2.88. For IAQYALLGYFICSWRTLAILVNLQ, the protein stability index was found to be 2.67. For IAQYALLGYFIHSWRTLAILVNLQ, the protein stability index stood at 2.5. Next, IAQYALLGYFIDSWRTLAILVNLQ: 1.86.

Turning to IAQYALLGYFIFSWRTLAILVNLQ, the protein stability index was 3.61. The result for IAQYALLGYFIGSWRTLAILVNLQ reads 2.97; that for IAQYALLGYFIESWRTLAILVNLQ, 3.81; that for IAQYALLGYFIPSWRTLAILVNLQ, 2.67. With IAQYALLGYFIVSWRTLAILVNLQ, the protein stability index came to 2.34.

Regarding IAQYALLGYFINSWRTLAILVNLQ, the protein stability index turned out to be 2.27.

For the variant IAQYALLGYFIRSWRTLAIDVNLQ, the protein stability index worked out at 2.57. For IAQYALLGYFIRSWRTLAICVNLQ, the protein stability index was 3.7. The result for IAQYALLGYFIRSWRTLAIAVNLQ reads 3.21; that for IAQYALLGYKIRSWRTLAILVNLQ, 2.44. The result for IAQYALLGYVIRSWRTLAILVNLQ reads 3.1; that for IAQYALLGYPIRSWRTLAILVNLQ, 2.24. The result for IAQYALLGYEIRSWRTLAILVNLQ reads 4.46; that for IAQYALLGYQIRSWRTLAILVNLQ, 3.4. On to IAQYALLGYGIRSWRTLAILVNLQ, for which the protein stability index was determined as 1.67. The result for IAQYALLGYHIRSWRTLAILVNLQ reads 3.27; that for IAQYALLGYCIRSWRTLAILVNLQ, 2.86; that for IAQYALLGYAIRSWRTLAILVNLQ, 3.58. The result for IAQYALLGYLIRSWRTLAILVNLQ reads 3.4; that for IAQYALLGYTIRSWRTLAILVNLQ, 4.13; that for IAQYALLGYIIRSWRTLAILVNLQ, 4.57. The result for IAQYALLPYFIRSWRTLAILVNLQ reads 1.82; that for IAQYALLSYFIRSWRTLAILVNLQ, 3.52; that for IAQYALLVYFIRSWRTLAILVNLQ, 2.97. As to IAQYALLNYFIRSWRTLAILVNLQ, the protein stability index came out at 1.67. The result for IAQYALLMYFIRSWRTLAILVNLQ reads 3.1; that for IAQYALLYYFIRSWRTLAILVNLQ, 1.76.

Regarding IAQYALLQYFIRSWRTLAILVNLQ, the protein stability index was 3.07. Regarding IAQYALLGWFIRSWRTLAILVNLQ, the protein stability index was determined as 2.92.

With IAQYALLGGFIRSWRTLAILVNLQ, the protein stability index was determined as 3.34. Next, IAQYALLGCFIRSWRTLAILVNLQ: 2.75. The result for IAQYALLGDFIRSWRTLAILVNLQ reads 2.57; that for IAQYALLGNFIRSWRTLAILVNLQ, 2.22. Next, IAQYALLGQFIRSWRTLAILVNLQ: 4.48; IAQYALLGIFIRSWRTLAILVNLQ: 2.71.

On to IAQYALLGEFIRSWRTLAILVNLQ, for which the protein stability index came to 2.03. Next, IAQYALLGKFIRSWRTLAILVNLQ: 1.29; IAQYALLGAFIRSWRTLAILVNLQ: 1.47. Next, IAQYALLGYFIRSWGTLAILVNLQ: 4.28. Next, IAQYALLGYFIRSWMTLAILVNLQ: 2.18; IAQYALLGYFIRSWYTLAILVNLQ: 2.65; IAQYALLGYFIRSWDTLAILVNLQ: 4.08. For IAQYALLGYFIRSWLTLAILVNLQ, the protein stability index was found to be 2.95. Take IAQYALLGYFIRSWVTLAILVNLQ: the protein stability index was found to be 2.88.

Consider IAQYALLGYFIRSWETLAILVNLQ, for which the protein stability index came to 1.81. Next, IAQYALLGYFIRSWWTLAILVNLQ: 3.4; IAQYALLGYFIRSWCTLAILVNLQ: 2.86.

As for IAQYALLGYFIRSWSTLAILVNLQ, the protein stability index amounted to 2. Turning to IAQYALLGYFIRSWFTLAILVNLQ, the protein stability index was found to be 3.18. The result for IAQYALLGYFIRSWATLAILVNLQ reads 2.1; that for IAQYALLGYFIRSWKTLAILVNLQ, 3.15; that for IAQYALLGYFIRSWQTLAILVNLQ, 2.52.

As to IAQYALLGYFIRSWTTLAILVNLQ, the protein stability index is 4.03.

On to IAQYALLGYFIRSWITLAILVNLQ, for which the protein stability index was found to be 3.23. Consider IAQYALLGYFIRSWNTLAILVNLQ, for which the protein stability index worked out at 3.78. The result for IAQYALLGYFIRSWHTLAILVNLQ reads 2.65.
